In patent US8859492:
Where no end group is shown, it is not given here. [ ]: non-standard residue; d: D form. Cha = N[C@@H](CC1CCCCC1)C(=O)O

target: Recombinant human somatic ACE (sACE-1: Leu30-Leu1261, with C-terminal His tag) (human) (UniProt P12821); assay: affinity based on the IC50 of sACE-1 inhibition (fluorogenic substrate cleavage)
Sequence (P12821 30-1261 limits assumed): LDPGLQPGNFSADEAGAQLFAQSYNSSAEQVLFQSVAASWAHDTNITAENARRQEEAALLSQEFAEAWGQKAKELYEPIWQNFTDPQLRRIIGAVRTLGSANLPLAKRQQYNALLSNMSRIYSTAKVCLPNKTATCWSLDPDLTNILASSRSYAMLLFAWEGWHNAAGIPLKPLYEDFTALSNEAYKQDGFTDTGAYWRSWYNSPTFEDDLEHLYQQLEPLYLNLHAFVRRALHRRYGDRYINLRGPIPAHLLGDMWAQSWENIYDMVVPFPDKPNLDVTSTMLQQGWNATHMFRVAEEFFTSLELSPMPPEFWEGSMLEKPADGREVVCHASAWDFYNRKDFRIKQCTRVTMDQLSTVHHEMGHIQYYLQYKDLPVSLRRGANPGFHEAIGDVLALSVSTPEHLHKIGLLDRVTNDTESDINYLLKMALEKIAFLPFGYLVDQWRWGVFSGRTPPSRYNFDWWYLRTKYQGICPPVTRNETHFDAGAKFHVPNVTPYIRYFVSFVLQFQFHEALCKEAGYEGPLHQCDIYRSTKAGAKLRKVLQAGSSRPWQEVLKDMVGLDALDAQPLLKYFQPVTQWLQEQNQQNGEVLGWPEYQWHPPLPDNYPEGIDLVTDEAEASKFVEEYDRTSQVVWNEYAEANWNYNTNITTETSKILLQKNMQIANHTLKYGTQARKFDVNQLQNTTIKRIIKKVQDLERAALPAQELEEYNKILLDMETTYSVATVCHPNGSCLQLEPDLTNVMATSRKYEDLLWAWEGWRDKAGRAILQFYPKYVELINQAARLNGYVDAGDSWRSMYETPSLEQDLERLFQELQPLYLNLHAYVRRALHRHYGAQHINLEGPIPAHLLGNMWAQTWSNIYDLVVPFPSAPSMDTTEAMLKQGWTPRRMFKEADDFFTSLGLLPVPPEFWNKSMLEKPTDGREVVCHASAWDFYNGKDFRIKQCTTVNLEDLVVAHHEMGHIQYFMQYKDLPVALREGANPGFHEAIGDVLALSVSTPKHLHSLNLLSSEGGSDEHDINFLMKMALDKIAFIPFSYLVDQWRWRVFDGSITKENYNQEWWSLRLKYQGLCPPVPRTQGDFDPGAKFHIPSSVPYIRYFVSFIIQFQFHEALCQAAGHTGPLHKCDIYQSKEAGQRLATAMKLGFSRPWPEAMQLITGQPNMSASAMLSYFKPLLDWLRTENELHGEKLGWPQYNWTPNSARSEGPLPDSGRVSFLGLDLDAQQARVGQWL

Ka [M⁻¹]	Substance
1.11e+07	Co-GGH-lisinopril (peptide)
680000	Cu-GGH-lisinopril (peptide)
6.67e+06	Ni-GGH-lisinopril (peptide)

target: HCV protease (hepatitis C virus); assay: affinity of metallopeptide for HCV protease; method not described

Substance	affinity [µM]
GGHDEMEEC (SEQ ID NO: 71)	48
GGHD[dE]LI[Cha]CP[Cha]DL	0.01

target: Recombinant human somatic ACE (sACE-1: Leu30-Leu1261, with C-terminal His tag) (human) (UniProt P12821); assay: cell-based or functional assay

second order rate constant for inactivation of sACE-1, ascorbate + H2O2 [M⁻¹ s⁻¹]	IC50 of sACE-1 inhibition (cleavage of fluorogenic substrate) [nM]	second order rate constant for inactivation of sACE-1, H2O2 [M⁻¹ s⁻¹]	second order rate constant for inactivation of sACE-1, ascorbate [M⁻¹ s⁻¹]	Substance
1170	90			Co-GGH-lisinopril (peptide)
2530	1470	467	1700	Cu-GGH-lisinopril (peptide)
	150		500	Ni-GGH-lisinopril (peptide)
167	17000	< 33.3	< 16.7	[Cu-GGH]^1- (peptide)

Substance	second order rate constant for inactivation of sACE-1, ascorbate + H2O2 [M⁻¹ s⁻¹]	IC50 of sACE-1 inhibition (cleavage of fluorogenic substrate) [nM]	second order rate constant for inactivation of sACE-1, H2O2 [M⁻¹ s⁻¹]	second order rate constant for inactivation of sACE-1, ascorbate [M⁻¹ s⁻¹]
Co-GGH (M-chelate without lisinopril) (peptide)	< 333			
Ni-GGH (M-chelate without lisinopril) (peptide)				< 83.3
